Test results: patent EP4115900A1

Target: gC1qR (C1QBP) on human T cells (human) (UniProt Q07021)
Test: cell-based or functional assay

Substance | PLA2G1B enzymatic activity on the membrane of CD4 T cells ([3H] arachidonic acid release) [Fold]
HCV core protein (Prospec HCV-011) | 26
Staphylococcus aureus protein A (Sigma P6031) | 3
